Test results from patent US6482605.

Target: EGF receptor (endogenous, in PC12 cell lysate)

B1: histidine-tagged PTP20 wild-type (6 histidine residues at the N-terminus), tetracycline-controlled expression in PC12 cells (protein)
chain: MHHHHHHSRQSDLVRSFLEQQEARDHRKGAILAREFSDIKARSVAWKTEGVCSTKAGSQQGNSKKNRYKDVVPYDETRVILSLLQEEGHGDYINANFIRGTDGSQAYIATQGPLPHTLLDFWRLVWEFGIKVILMACQETENGRRKCERYWAQEREPLQAGPFCITLTKETALTSDITLRTLQVTFQKESRPVHQLQYMSWPDHGVPSSSDHILTMVEEARCLQGLGPGPLCVHCSAGCGRTGVLCAVDYVRQLLLTQTIPPNFSLFEVVLEMRKQRPAAVQTEEQYRFLYHTVAQLFSRTLQNNSPLYQNLKENRAPICKDSSSLRTSSALPATSRPLGGVLRSISVPGPPTLPMADTYAVVQKRGASGSTGPGTRAPNSTDTPIYSQVAPRIQRPVSHTENAQGTTALGRVPADENPSGPDAYEEVTDGAQTGGLGFNLRIGRPKGPRDPPAEWTRV
B1 was tested, and the “tyrosine phosphorylation of EGF receptor upon EGF stimulation (precipitation, anti-phosphotyrosine blot)” value was “Overexpression of PTP20 wt resulted in dramatic dephosphorylation of EGF receptor”.
